Among the data in patent publication US20050009119A1 are Kd values, retold here.

In the assay the target is human nucleophosmin (NPM; B23) (human) (UniProt P06748). Briefly: Scatchard analysis, increasing amounts of 125I-labelled antibody on intact cells (cell line not stated).
UniProt P06748, sequence (P06748 whole entry): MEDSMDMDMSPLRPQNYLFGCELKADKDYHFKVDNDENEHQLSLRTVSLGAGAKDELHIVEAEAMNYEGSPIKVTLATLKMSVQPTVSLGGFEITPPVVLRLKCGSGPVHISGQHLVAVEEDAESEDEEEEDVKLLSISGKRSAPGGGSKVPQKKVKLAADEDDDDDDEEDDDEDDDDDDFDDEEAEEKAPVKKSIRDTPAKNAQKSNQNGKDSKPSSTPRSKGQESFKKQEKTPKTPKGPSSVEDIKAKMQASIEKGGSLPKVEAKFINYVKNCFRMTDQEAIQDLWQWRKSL

For the substance “mouse monoclonal anti-nucleophosmin antibody (Zymed Laboratories, catalog no. 32-5200)”, the Kd came to 8.2 nM.
